According to patent publication US20230190869A1, “PEPTIDE INHIBITORS OF GUANINE NUCLEOTIDE EXCHANGE FACTOR H-1” (UCL Business Ltd, priority 2020, published 2023):
Numbered stars: 1 amine (or outer) side, 2 acyl side, 3 side chain; on linkers, the order of the positions; unused ones are H or OH. Bridge positions count the residues as written; N and C are the ends. Square brackets hold non-standard residues; d marks the D form. Ends that are not written are not given here. Peptide text beside a SMILES is read from it. ξ: configuration not given here. ξαMeNle(6-ylidene) = CC(CCCC=[*:3])(N[*:1])C(=O)[*:2]

Columns and labels:
MDCK and HEK293 cells [1] = assay: Cell toxicity: release of LDH in the medium (necrosis); type: cell-based
Description: (§1) (A and B) MDCK and HEK293 cells were incubated as described in previous figures with TAT-F1 or TAT-P5. Cell toxicity was then assessed by measuring release of LDH in the medium and caspase 3/7 activity in cell extracts. […] Direct lysis of cells served as a positive control in (A) whereas active caspases were used as controls in (B).
as §1, with “stapled-P5.” for “TAT-F1 or TAT-P5.”, “for LDH release” for “in (A)”, “used” for “used as controls”, “caspase assays.” for “(B).”
(§2) The potency of GEF-H1 inhibitors was analysed in cell-based assays to determine effectiveness of inhibition of GEF-H1 signalling and specificity for GEF-H1, and in cell-based assays modelling epithelial degeneration or inflammatory disease. Potential toxicity of the inhibitors was determined by measuring apoptosis (Caspase3/7 activation) and necrosis (release of […]).

MDCK and HEK293 cells [2] = assay: Cell toxicity: caspase 3/7 activity in cell extracts (apoptosis); type: cell-based
Description: as §1
as §1, with “stapled-P5.” for “TAT-F1 or TAT-P5.”, “for LDH release” for “in (A)”, “used” for “used as controls”, “caspase assays.” for “(B).”
as §2

[3] = test system: interaction between RhoA and constitutively active GEF-H1 (DH/PH module); assay: GST-RhoA pulldown of constitutively active GEF-H1 from cell extracts; type: binding; conditions: GST-RhoA pull down, FIG. 5
Description: Recombinant fusion proteins of GST and RhoA were used for pulldown of constitutively active GEF-H1 from cell extracts. (A) Candidate peptide inhibitors were added to the pulldown. (B, C) Recombinant fragments from the CTD of GEF-H1 were added. Note, the further analysed P5 and F1 peptide inhibitors both block the interaction between RhoA and active GEF-H1.
2) Active GEF-H1 binds with high affinity to nucleotide-free and GDP-bound RhoA, its physiological substrate. […] Thus, both F1 and P5 block GEF-H1 function by the same mechanism. Based on these functional and biochemical assays (FIGS. 4 and 5), F1 and P5 were selected for further analysis and refinement. Membrane permeable derivatives were synthesized for both inhibitors: TAT-F1 and TAT-P5.
The P5 sequence and modified versions thereof, are derived from the interaction surface of RhoA with the active site of GEF-H1 (i.e., the DH domain). […] The same is true for the F1 sequence, as it blocks binding of RhoA to a DH/PH domain construct (FIG. 5).

GEF-H1 [4] = target: T1, GEF-H1 (Canis lupus familiaris, UniProt Q865S3); assay: GEF-H1 overexpression-induced cell spreading / cell shape morphological assay; type: cell-based
T1 sequence (Q865S3 1-986): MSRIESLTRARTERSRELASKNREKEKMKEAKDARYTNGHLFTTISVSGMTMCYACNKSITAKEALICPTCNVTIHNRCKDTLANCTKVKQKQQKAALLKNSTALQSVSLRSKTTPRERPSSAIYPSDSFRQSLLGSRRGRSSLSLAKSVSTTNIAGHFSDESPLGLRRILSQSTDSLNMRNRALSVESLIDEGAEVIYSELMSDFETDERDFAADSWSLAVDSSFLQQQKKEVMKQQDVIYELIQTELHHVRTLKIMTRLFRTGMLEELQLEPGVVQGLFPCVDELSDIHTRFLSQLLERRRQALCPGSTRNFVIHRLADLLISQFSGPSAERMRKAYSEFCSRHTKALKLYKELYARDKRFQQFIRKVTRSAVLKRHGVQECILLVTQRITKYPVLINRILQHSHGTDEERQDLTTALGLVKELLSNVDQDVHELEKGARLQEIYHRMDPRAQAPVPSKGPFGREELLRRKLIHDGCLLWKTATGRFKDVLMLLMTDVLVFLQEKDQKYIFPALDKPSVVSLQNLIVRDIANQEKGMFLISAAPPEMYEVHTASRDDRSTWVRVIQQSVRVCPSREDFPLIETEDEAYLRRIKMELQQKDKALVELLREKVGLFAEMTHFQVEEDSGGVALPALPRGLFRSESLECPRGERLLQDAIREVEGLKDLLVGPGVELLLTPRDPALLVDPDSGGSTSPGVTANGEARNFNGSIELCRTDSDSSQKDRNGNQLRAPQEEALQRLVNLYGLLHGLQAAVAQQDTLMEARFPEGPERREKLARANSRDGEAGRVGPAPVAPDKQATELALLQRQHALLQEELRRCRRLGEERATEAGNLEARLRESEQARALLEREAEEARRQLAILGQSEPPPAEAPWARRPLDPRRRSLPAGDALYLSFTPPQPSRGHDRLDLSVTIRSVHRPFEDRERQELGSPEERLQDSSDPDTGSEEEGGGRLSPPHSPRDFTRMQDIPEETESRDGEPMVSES

p114RhoGEF = target: T2, p114RhoGEF (Homo sapiens, UniProt Q6ZSZ5); assay: p114RhoGEF-induced cell rounding in MDCK cells (specificity); type: cell-based
T2 sequence (Q6ZSZ5 1-1015 isoform Q6ZSZ5-2): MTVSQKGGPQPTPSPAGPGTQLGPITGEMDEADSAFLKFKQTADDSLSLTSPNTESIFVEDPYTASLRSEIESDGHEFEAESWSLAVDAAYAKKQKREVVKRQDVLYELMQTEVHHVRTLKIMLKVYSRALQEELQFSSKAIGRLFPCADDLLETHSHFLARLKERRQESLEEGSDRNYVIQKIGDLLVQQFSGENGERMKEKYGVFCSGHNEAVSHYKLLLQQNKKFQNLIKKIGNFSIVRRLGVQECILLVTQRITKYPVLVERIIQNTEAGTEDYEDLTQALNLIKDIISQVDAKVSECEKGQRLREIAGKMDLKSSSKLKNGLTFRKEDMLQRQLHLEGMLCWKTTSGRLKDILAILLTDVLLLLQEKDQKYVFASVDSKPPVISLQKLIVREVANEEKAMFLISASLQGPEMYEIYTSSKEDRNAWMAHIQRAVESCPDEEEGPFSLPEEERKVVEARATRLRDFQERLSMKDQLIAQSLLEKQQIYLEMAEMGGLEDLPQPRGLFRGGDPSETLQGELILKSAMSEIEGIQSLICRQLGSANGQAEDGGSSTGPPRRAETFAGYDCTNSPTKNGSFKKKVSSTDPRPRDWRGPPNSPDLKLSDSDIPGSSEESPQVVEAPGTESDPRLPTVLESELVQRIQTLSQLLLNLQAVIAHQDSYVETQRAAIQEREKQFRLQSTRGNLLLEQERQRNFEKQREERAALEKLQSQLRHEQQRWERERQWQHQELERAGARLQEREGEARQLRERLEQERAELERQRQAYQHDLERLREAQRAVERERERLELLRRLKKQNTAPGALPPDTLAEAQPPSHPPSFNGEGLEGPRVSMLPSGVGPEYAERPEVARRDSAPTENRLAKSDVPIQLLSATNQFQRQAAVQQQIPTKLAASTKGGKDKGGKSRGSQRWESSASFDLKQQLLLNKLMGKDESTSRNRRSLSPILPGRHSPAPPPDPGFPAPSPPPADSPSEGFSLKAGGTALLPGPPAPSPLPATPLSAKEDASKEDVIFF

[5] = test system: primary retinal pigment epithelial (RPE) cells; assay: TGF-β stimulation of primary RPE cells (αSMA induction, junctional markers); type: cell-based
Description: Inhibition of TGF-β signaling in primary retinal pigment epithelial (RPE) cells. (A, B) Primary RPE cells were incubated with TAT-P5 or TAT-F1 and stimulated with TGF-β for five days. (A) αSMA and, as a loading control, tubulin expression were analysed by immunoblotting. […] (B) Expression of the junctional marker ZO-1 and tubulin were determined. (C) Primary RPE cells were incubated with TGF-β as in (A) but with stapled-P5, and expression of αSMA positive cells was analysed by immunofluorescence.
7) The inventors next tested the inhibitors in cell-based disease models. GEF-H1 drives fibrotic and degenrative responses in the RPE, which can be modelled by treating primary RPE cells with TGF-β.

active Dbl = assay: αSMA / SRE reporter assays in cells overexpressing active Dbl (specificity); type: cell-based; conditions: TAT-F1 4 μM
[6] = test system: Human primary endothelial cells; assay: LPS-induced endothelial activation; type: cell-based
Source text: GEF-H1 inhibitors prevent endothelial inflammatory responses induced by LPS. Human primary endothelial cells were stimulated with LPS in the presence or absence of the indicated GEF-H1 inhibitors. […] TAT-P5 and TAT-F1 attenuate cytoskeletal remodelling, ICAM1 induction, and attenuate loss of barrier function.
8) GEF-H1 regulates inflammatory responses in various cell types. […] Similarly, cytoskeletal remodeling and cell junction disruption was also attenuated in TNFα and Thrombin-stimulated endothelial cells.

GEF-H1 [7] = assay: SRE / αSMA promoter luciferase reporter gene assays of GEF-H1 signalling; type: cell-based; conditions: GEF-H1 overexpression
[8] = stapled-P5, different concentrations analysed

“GRKKRRQRRRPWQGQEDYDRLRPASYPDTDVI [TAT-P5]” was tested, and the “cell toxicity by release of LDH in the medium” value (shortened to “cell toxicity by release of LDH”) (MDCK and HEK293 cells [1]; TAT-P5 5-20 μM) was “No significant cell toxicity” and the “cell toxicity by caspase 3/7 activity in cell extracts” value (“cell toxicity by caspase 3/7 activity” for short) (MDCK and HEK293 cells [2]; TAT-P5 5-20 μM) was “No significant cell toxicity”.

In the case of “GQEDYDRLRPASYPDTDVI (P5 amino acid sequence) [Peptide P5]”, the “inhibition of the interaction between RhoA and constitutively active GEF-H1” value [3] is reported as “inhibited the interaction” and the “inhibition of overexpressed GEF-H1, comparison of P1 to P5” value (GEF-H1 [4]; morphological assay (cell spreading) and SRE-driven reporter assay, peptide transfection) is reported as “most effective inhibitor”.

`CC(C)C[C@H](NC(=O)[C@@H](N)CCCNC(=N)N)C(=O)NC1(C)CCCC=CCCCC(C)(C(=O)N2CCC[C@H]2C(=O)N[C@@H](CC(=O)O)C(=O)N[C@H](C(=O)O)[C@@H](C)O)NC(=O)[C@H](CO)NC(=O)[C@H](C)NC(=O)[C@@H]2CCCN2C1=O` (stereo partly shown) [stapled-P5, RL(X)PAS(X)PDT; X = 2,(4, pentenyl)alanine] (H-RL[ξαMeNle(6-ylidene)]PAS[ξαMeNle(6-ylidene)]PDT-OH; staple 3-7) was tested, and the “cell toxicity by release of LDH” value (MDCK and HEK293 cells [1]; [8]) was “No significant cell toxicity” and the “cell toxicity by caspase 3/7 activity” value (MDCK and HEK293 cells [2]; [8]) was “No significant cell toxicity”.

B1: TAT-F1: F1 fused to a TAT sequence to render it membrane-permeable, SEQ ID NO: 7 (protein)
chain: MGGYGRKKRRQRRRGGGSGYPYDVPDYAGGSSSREDFPLIETEDEAYLRRIKMELQQKDKALVELLREKVGLFAEMTHFQVEEDSGGVALPALPRGLFRSESLECPRGERLLQDAIREVEGLKDLLVGPGVELLLTPRDPALLVDPDSGGSTSPGVTANGEARN
modifications: TAT-F1 amino acid sequence
In the case of B1, the “inhibition of p114RhoGEF overexpression-induced cell rounding” value (p114RhoGEF) is reported as “not inhibited”, the “downregulation of junctional markers” value ([5]; primary RPE cells treated with TGF-β, FIG. 11) is reported as “inhibit downregulation” and the “TGF-β-induced induction of αSMA, a marker of epithelial fibrosis” value ([5]; primary RPE cells, FIG. 11) is reported as “effectively suppress”. The “TGF-β induced αSMA expression normalised by tubulin (immunoblot)” value ([5]; primary RPE cells, TGF-β for five days) was “concentration-dependent repression”, the “transcription from the αSMA promoter in cells overexpressing active Dbl” value (active Dbl) was “do not inhibit transcription” and the “cell toxicity by release of LDH” value (MDCK and HEK293 cells [1]; TAT-F1 1-4 μM) was “No significant cell toxicity”. The “LPS-induced ICAM1 induction” value ([6]; immunoblotting) was “attenuate”, the LPS-induced cytoskeletal remodelling ([6]; immunofluorescence) was “attenuate” and the “LPS-induced loss of barrier function” value ([6]; paracellular permeability) was “attenuate”. For the same molecule, the “transcription of the SRE-containing alpha-smooth muscle actin (αSMA) promoter” value (GEF-H1 [7]) was “inhibit transcription” and the “cell toxicity by caspase 3/7 activity” value (MDCK and HEK293 cells [2]; TAT-F1 1-4 μM) was “No significant cell toxicity”.

B2: F1: Fragment 1 of the auto-inhibitory C-terminal domain (CTD) of GEF-H1, SEQ ID NO: 2 (protein)
chain: SREDFPLIETEDEAYLRRIKMELQQKDKALVELLREKVGLFAEMTHFQVEEDSGGVALPALPRGLFRSESLECPRGERLLQDAIREVEGLKDLLVGPGVELLLTPRDPALLVDPDSGGSTSPGVTANGEARN
modifications: F1 amino acid sequence
B2 was tested, and the “inhibition of the interaction between RhoA and constitutively active GEF-H1” value [3] was “inhibited the interaction” and the “auto-inhibitory activity / block of GEF-H1 function by CTD fragments” value (GEF-H1 [4]; FIGS. 4 and 5 (cell spreading, SRE reporter, pulldown)) was “blocks GEF-H1 function”.
